Reference: the supplement of paper PMC10567573

B1: TRIM39 (parent)
chain: ERDFPCPVCRKTSRYRSLRPNRQL
B2: FBF1 (parent)
chain: QLQCSPAELQAELLHSQARLAELE

Variants of: B1
Test: protein stability index of a GFP-peptide fusion (GPS, HEK-293T) (PSI 1-6); higher = more stable
Conditions: c terminus: a fixed tail appended
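Note: lentivirally expressed fusions sorted by FACS into six bins by GFP to DsRed ratio, PSI derived from sequencing read proportions per bin multiplied by bin number.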

Row | Variant | protein stability index
1 | ERDFPCPVCRKTSRYRSGRPNRQL [L18G] | 2.34
2 | ERDFPCPVCRKTSRYRSRRPNRQL [L18R] | 2.87
3 | ERDKPCPVCRKTSRYRSLRPNRQL [F4K] | 2.86
4 | ERDNPCPVCRKTSRYRSLRPNRQL [F4N] | 2.89
5 | ERDFACPVCRKTSRYRSLRPNRQL [P5A] | 1.74
6 | ERDFPCPYCRKTSRYRSLRPNRQL [V8Y] | 1.95
7 | ERDFPCPVMRKTSRYRSLRPNRQL [C9M] | 3.41
8 | ERDFPCPVARKTSRYRSLRPNRQL [C9A] | 3.79
9 | ERDFPAPVCRKTSRYRSLRPNRQL [C6A] | 2.69
10 | ERDFPCPVCRKTSRYRSLRPNRQR [L24R] | 3.37
11 | ERDFPCPVCFKTSRYRSLRPNRQL [R10F] | 1.74
12 | ERDFPCPVCPKTSRYRSLRPNRQL [R10P] | 3.13
13 | ERDFPCPVCRKTSRYRSLRHNRQL [P20H] | 1.87
14 | ERDFPCPVCRKTSRYHSLRPNRQL [R16H] | 2.29
15 | ERDFPCPVCRFTSRYRSLRPNRQL [K11F] | 1.88
16 | ERDFPCPVCRKTSQYRSLRPNRQL [R14Q] | 2
17 | ERDFPCPVCRKTSTYRSLRPNRQL [R14T] | 1.58
18 | ERDFPCPVCRKTSEYRSLRPNRQL [R14E] | 3.71
19 | ERDFPCPVCRKTSRYRSLRPWRQL [N21W] | 2.53
20 | ERDFPCPVCRKTSRYRSLRPNRHL [Q23H] | 3.18
21 | ERDFPCPVCRKTKRYRSLRPNRQL [S13K] | 1.77
22 | QRDFPCPVCRKTSRYRSLRPNRQL [E1Q] | 2.06
23 | ERPFPCPVCRKTSRYRSLRPNRQL [D3P] | 2.06
24 | ERRFPCPVCRKTSRYRSLRPNRQL [D3R] | 1.99
25 | ERAFPCPVCRKTSRYRSLRPNRQL [D3A] | 2.2

Variants of: B2
Test: as above
Conditions: c terminus: a fixed tail appended

Row | Variant | protein stability index
26 | QSQCSPAELQAELLHSQARLAELE [L2S] | 3.96
27 | QPQCSPAELQAELLHSQARLAELE [L2P] | 4.15
28 | QAQCSPAELQAELLHSQARLAELE [L2A] | 3.02
29 | QQQCSPAELQAELLHSQARLAELE [L2Q] | 3.85
30 | QTQCSPAELQAELLHSQARLAELE [L2T] | 2.94
31 | QKQCSPAELQAELLHSQARLAELE [L2K] | 2.89
32 | QEQCSPAELQAELLHSQARLAELE [L2E] | 4.46
33 | QMQCSPAELQAELLHSQARLAELE [L2M] | 3.61
34 | QIQCSPAELQAELLHSQARLAELE [L2I] | 2.82
35 | QRQCSPAELQAELLHSQARLAELE [L2R] | 2.59
36 | QWQCSPAELQAELLHSQARLAELE [L2W] | 2.75
37 | QGQCSPAELQAELLHSQARLAELE [L2G] | 3.38
38 | QDQCSPAELQAELLHSQARLAELE [L2D] | 3.65
39 | QHQCSPAELQAELLHSQARLAELE [L2H] | 3.21
40 | QVQCSPAELQAELLHSQARLAELE [L2V] | 3.68
41 | QNQCSPAELQAELLHSQARLAELE [L2N] | 3.52
42 | QYQCSPAELQAELLHSQARLAELE [L2Y] | 3.35
43 | QCQCSPAELQAELLHSQARLAELE [L2C] | 2.42
44 | QFQCSPAELQAELLHSQARLAELE [L2F] | 2.83
45 | QLQCSPYELQAELLHSQARLAELE [A7Y] | 1.82
46 | QLQCSPQELQAELLHSQARLAELE [A7Q] | 3.27
47 | QLQCSPCELQAELLHSQARLAELE [A7C] | 2.74
48 | QLQCSPGELQAELLHSQARLAELE [A7G] | 2.52

Row | Variant | protein stability index
49 | QLQCSPDELQAELLHSQARLAELE [A7D] | 3.66
50 | QLQCSPEELQAELLHSQARLAELE [A7E] | 3.4
51 | QLQCSPSELQAELLHSQARLAELE [A7S] | 3.62
52 | QLQCSPKELQAELLHSQARLAELE [A7K] | 2.9
53 | QLQCSPFELQAELLHSQARLAELE [A7F] | 2.57
54 | QLQCSPHELQAELLHSQARLAELE [A7H] | 2.57
55 | QLQCSPNELQAELLHSQARLAELE [A7N] | 3.39
56 | QLQCSPLELQAELLHSQARLAELE [A7L] | 2.37
57 | QLQCSPPELQAELLHSQARLAELE [A7P] | 3.79
58 | QLQCSPWELQAELLHSQARLAELE [A7W] | 2.92
59 | QLQCSPMELQAELLHSQARLAELE [A7M] | 2.36
60 | QLQCSPIELQAELLHSQARLAELE [A7I] | 2.94
61 | QLQCSPRELQAELLHSQARLAELE [A7R] | 3.06
62 | QLQCSPTELQAELLHSQARLAELE [A7T] | 2.78
63 | QLQCSPVELQAELLHSQARLAELE [A7V] | 3.07
64 | SLQCSPAELQAELLHSQARLAELE [Q1S] | 3.31
65 | CLQCSPAELQAELLHSQARLAELE [Q1C] | 2.91
66 | KLQCSPAELQAELLHSQARLAELE [Q1K] | 2.69
67 | WLQCSPAELQAELLHSQARLAELE [Q1W] | 2.8
68 | GLQCSPAELQAELLHSQARLAELE [Q1G] | 2.77
69 | RLQCSPAELQAELLHSQARLAELE [Q1R] | 2.59
70 | HLQCSPAELQAELLHSQARLAELE [Q1H] | 3.26
71 | YLQCSPAELQAELLHSQARLAELE [Q1Y] | 2.6

Row | Variant | protein stability index
72 | ILQCSPAELQAELLHSQARLAELE [Q1I] | 2.82
73 | ALQCSPAELQAELLHSQARLAELE [Q1A] | 2.89
74 | PLQCSPAELQAELLHSQARLAELE [Q1P] | 3.91
75 | FLQCSPAELQAELLHSQARLAELE [Q1F] | 2.06
76 | NLQCSPAELQAELLHSQARLAELE [Q1N] | 2.82
77 | DLQCSPAELQAELLHSQARLAELE [Q1D] | 3.2
78 | MLQCSPAELQAELLHSQARLAELE [Q1M] | 2.64
79 | VLQCSPAELQAELLHSQARLAELE [Q1V] | 2.41
80 | LLQCSPAELQAELLHSQARLAELE [Q1L] | 2.62
81 | ELQCSPAELQAELLHSQARLAELE [Q1E] | 3.2
82 | TLQCSPAELQAELLHSQARLAELE [Q1T] | 3.33
83 | QLQCSLAELQAELLHSQARLAELE [P6L] | 2.43
84 | QLQCSCAELQAELLHSQARLAELE [P6C] | 2.17
85 | QLQCSEAELQAELLHSQARLAELE [P6E] | 2.6
86 | QLQCSSAELQAELLHSQARLAELE [P6S] | 3.26
87 | QLQCSQAELQAELLHSQARLAELE [P6Q] | 2.84
88 | QLQCSAAELQAELLHSQARLAELE [P6A] | 2.85
89 | QLQCSMAELQAELLHSQARLAELE [P6M] | 2.31
90 | QLQCSRAELQAELLHSQARLAELE [P6R] | 3.1
91 | QLQCSTAELQAELLHSQARLAELE [P6T] | 3.66
92 | QLQCSGAELQAELLHSQARLAELE [P6G] | 2.24
93 | QLQCSIAELQAELLHSQARLAELE [P6I] | 2.44
94 | QLQCSVAELQAELLHSQARLAELE [P6V] | 2.44
